Results from article PMC2288870.

What was measured:
[1] = biological target: 50-kD chymotryptic fragment of thrombospondin (human); test: non-reducing SDS-PAGE
[2] = biological target: 70-kD chymotryptic fragment of thrombospondin (human); test: non-reducing SDS-PAGE

Row | stoichiometry N [1] | stoichiometry N [2] | Substance
1 | 3 | – | 50-kD chymotryptic fragment of thrombospondin (domain or fragment)
2 | – | 3 | 70-kD chymotryptic fragment of thrombospondin (domain or fragment)
